How the values were obtained:
[1] = target: BG505 gp140 NFL2P (HIV-1 (BG505)); assay: SEC + native gel or EMSA
[2] = target: BG505 gp140 NFL2P (HIV-1 (BG505)); assay: negative-stain EM of unliganded trimers
[3] = target: JRFL gp140 NFL2P (HIV-1 (JRFL)); assay: SEC + native gel or EMSA
[4] = target: JRFL gp140 NFL2P (HIV-1 (JRFL)); assay: negative-stain EM of unliganded trimers
[5] = target: 16055 gp140 NFL2P (HIV-1 (16055)); assay: negative-stain EM of unliganded trimers

Substance: BG505 gp140 NFL2P
- stoichiometry N [1]: 3
- stoichiometry N [2]: 3

Substance: JRFL gp140 NFL2P
- stoichiometry N [3]: 3
- stoichiometry N [4]: 3

Substance: 16055 gp140 NFL2P
- stoichiometry N [5]: 3

Reference: PMC4637274
